# Laboratory results reported in patent US20250043302A1, “MUTATED HYDROXYPHENYLPYRUVATE DIOXYGENASE POLYPEPTIDE, AND CODING GENE AND USE THEREOF” (BEIJING DABEINONG BIOTECHNOLOGY CO., LTD., priority 2021, published 2025).
# Positions count from the first letter of the chain named. Names and notes keep the numbering of the source.
# B1: OsHPPDm-F372A-F383W-02: nucleotide sequence encoding Oryza sativa HPPD with F372A+F383W; vector DBN11757 (nucleic acid)
# DNA: ATGCCACCCACGCCAACACCAACGGCCACCACTGGTGCCGTCTCGGCCGCGGCAGCGGCCGGTGAGAATGCTGGTTTCAGGCTAGTCGGCCACCGCCGCTTCGTGAGGGCAAATCCAAGATCTGATCGGTTCCAAGCACTTGCTTTCCACCATGTTGAGCTGTGGTGCGCTGACGCCGCTTCAGCTGCCGGGAGGTTTGCTTTTGCTTTAGGGGCGCCGCTCGCCGCAAGGAGTGATCTTTCCACCGGAAATTCTGCTCATGCTTCTCTTCTACTTAGATCAGCAAGTGTTGCATTTCTGTTCACTGCACCTTATGGCGGAGACCATGGTGTCGGGGCCGATGCTGCAACAACAGCTAGCATACCATCATTTTCTCCCGGCGCCGCAAGAAGATTTGCAGCCGATCATGGCCTGGCAGTTCATGCTGTGGCATTGAGGGTCGCCGACGCGGCTGATGCGTTCCGCGCCAGCGTGGCTGCTGGAGCTAGGCCGGCGTTCCAGCCTGCTGACCTTGGGGGTGGATTTGGATTGGCGGAGGTTGAATTATATGGTGATGTTGTGCTCCGTTTTGTTTCCCATCCAGATGGTGCTGATGCTCCATTTCTACCTGGATTTGAAGGGGTGTCAAACCCCGGCGCGGTGGATTATGGACTGCGTCGATTTGATCACGTGGTAGGTAATGTTCCTGAGTTGGCTCCCGTGGCGGCCTACATTTCAGGCTTTACTGGCTTCCATGAATTTGCCGAGTTCACCGCGGAAGATGTGGGAACTGCTGAAAGTGGATTGAACTCTGTTGTCCTGGCGAACAATGCAGAGACTGTATTGCTCCCCTTGAATGAGCCTGTGCACGGCACCAAACGGCGATCTCAAATTCAGACATACCTCGACCACCACGGGGGCCCTGGTGTTCAGCATATTGCTCTAGCCAGCGACGACGTACTGGGAACACTGAGGGAGATGAGAGCCCGTTCCGCCATGGGTGGCTTTGAGTTTCTGGCCCCTCCGCCGCCAAACTACTACGACGGCGTCAGACGGCGGGCGGGTGACGTCTTGAGTGAGGAGCAGATCAATGAATGTCAAGAACTTGGGGTTCTTGTTGATAGAGATGATCAAGGAGTGCTCCTCCAAATAGCCACAAAACCTGTTGGCGACCGCCCGACCTTCTGGCTTGAAATGATCCAAAGGATCGGCTGCATGGAGAAGGATGAATCGGGCCAGGAGTACCAGAAGGGTGGGTGTGGTGGCTTTGGGAAGGGCAACTTCAGCGAGCTGTTCAAGTCAATTGAAGAATATGAAAAATCATTGGAGGCAAAGCAAGCTCCGACGGTGCAGGGAAGCTGA
# modifications: OsHPPDm-F372A-F383W-02 Nucleotide Sequence
# notes: vector DBN11757
# B2: OsHPPDm-F383W-02: nucleotide sequence encoding Oryza sativa HPPD with F383W; vector DBN11756 (nucleic acid)
# DNA: B1 DNA with G1132T, C1133T
# modifications: OsHPPDm-F383W-02 Nucleotide Sequence
# notes: vector DBN11756
# B3: OsHPPDm-F372A-02: nucleotide sequence encoding Oryza sativa HPPD with F372A; vector DBN11755 (nucleic acid)
# DNA: B1 DNA with G1166T, G1167C
# modifications: OsHPPDm-F372A-02 Nucleotide Sequence
# notes: vector DBN11755
# System: Arabidopsis thaliana T1 plants
# Assay: Topramezone tolerance of transgenic Arabidopsis thaliana T1 plants (spray, bleached leaf area grade, damage score)
# Type: in vivo
# Conditions: number of plants; topramezone 25 g ai/ha (1×), 7 DAT; Table 4
# Outline: (§1)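 Damage graded 0–3 from the proportion of bleached leaf area 7 days after spraying. Plants were glufosinate-selected T1 lines, 18 days after sowing, plus vector and wild-type controls. Rates: mesotrione 52.5–420, isoxaflutole 35–280, topramezone 25–200 g ai/ha, with water (0×).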
Molecule,Classification and statistics of the grade of pesticide damage: Grade 0,Classification and statistics of the grade of pesticide damage: Grade 1,Classification and statistics of the grade of pesticide damage: Grade 2,Classification and statistics of the grade of pesticide damage: Grade 3
B1,10,6,0,0
B2,0,3,9,4
B3,8,8,0,0

# Same assay, conditions: number of plants; topramezone 100 g ai/ha (4×), 7 DAT; Table 4
Molecule,Classification and statistics of the grade of pesticide damage: Grade 0,Classification and statistics of the grade of pesticide damage: Grade 1,Classification and statistics of the grade of pesticide damage: Grade 2,Classification and statistics of the grade of pesticide damage: Grade 3
B1,2,13,1,0
B2,0,0,0,16
B3,0,0,0,16

# Same assay, conditions: pesticide damage score 0-100; topramezone 25 g ai/ha (1×), 7 DAT; Table 4
row,Molecule,Scores
1,B1,13
2,B2,69
3,B3,17

# Same assay, conditions: pesticide damage score 0-100; topramezone 100 g ai/ha (4×), 7 DAT; Table 4
row,Molecule,Scores
1,B1,31
2,B2,100
3,B3,100

# Same assay, conditions: topramezone 25 g ai/ha (1×), 7 DAT; Table 4
row,Molecule,Resistance evaluation
1,B1,highly
2,B2,non-resistant (non-resistant plants (scores 68-100))
3,B3,moderately

# Same assay, conditions: topramezone 100 g ai/ha (4×), 7 DAT; Table 4
row,Molecule,Resistance evaluation
1,B1,moderately
2,B2,non-resistant (non-resistant plants (scores 68-100))
3,B3,non-resistant (non-resistant plants (scores 68-100))

# System: Arabidopsis thaliana T1 plants
# Assay: Isoxaflutole tolerance of transgenic Arabidopsis thaliana T1 plants (spray, bleached leaf area grade, damage score)
# Type: in vivo
# Set-up: Scores (pesticide damage): scale not given here
# Conditions: isoxaflutole 35 g ai/ha (0.5x field concentration), spray, Arabidopsis thaliana T1 plants
# Outline: as §1
Molecule,Resistance evaluation,Scores (pesticide damage)
B1,Highly,10
B2,Non-resistant,94
B3,Poorly,52

# Same assay, conditions: isoxaflutole 35 g ai/ha (0.5x field concentration), spray, Arabidopsis thaliana T1 plants, 16 plants
Molecule,Classification and statistics of the grade of pesticide damage: Grade 0 (number of plants),Classification and statistics of the grade of pesticide damage: Grade 1 (number of plants),Classification and statistics of the grade of pesticide damage: Grade 2 (number of plants),Classification and statistics of the grade of pesticide damage: Grade 3 (number of plants)
B1,11,5,0,0
B2,0,0,3,13
B3,0,8,7,1

# Same assay, conditions: isoxaflutole 70 g ai/ha (1x field concentration), spray, Arabidopsis thaliana T1 plants
Molecule,Resistance evaluation,Scores (pesticide damage)
B1,Highly,15
B2,Non-resistant,100
B3,Non-resistant,100

# Same assay, conditions: isoxaflutole 70 g ai/ha (1x field concentration), spray, Arabidopsis thaliana T1 plants, 16 plants
Molecule,Classification and statistics of the grade of pesticide damage: Grade 0 (number of plants),Classification and statistics of the grade of pesticide damage: Grade 1 (number of plants),Classification and statistics of the grade of pesticide damage: Grade 2 (number of plants),Classification and statistics of the grade of pesticide damage: Grade 3 (number of plants)
B1,9,7,0,0
B2,0,0,0,16
B3,0,0,0,16

# System: Arabidopsis thaliana T1 plants
# Assay: Mesotrione tolerance of transgenic Arabidopsis thaliana T1 plants (spray, bleached leaf area grade, damage score)
# Type: in vivo
# Set-up: Scores: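 damage score 0-100 computed as Σ(N×S)/(T×M)×100 over grades 0-3 with higher meaning more damage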
# Conditions: mesotrione 52.5 g ai/ha; Arabidopsis thaliana T1 plants
# Outline: as §1
Molecule,Resistance evaluation,Scores
B1,Highly resistant,15
B2,Non-resistant,85
B3,Poorly resistant,63

# Same assay, conditions: mesotrione 52.5 g ai/ha; Arabidopsis thaliana T1 plants; 16 plants
Molecule,Grade 0 (classification and statistics of the grade of pesticide damage; number of plants),Grade 1 (classification and statistics of the grade of pesticide damage; number of plants),Grade 2 (classification and statistics of the grade of pesticide damage; number of plants),Grade 3 (classification and statistics of the grade of pesticide damage; number of plants)
B1,9,7,0,0
B2,0,0,7,9
B3,0,5,8,3

# Same assay, conditions: mesotrione 105 g ai/ha; Arabidopsis thaliana T1 plants
Molecule,Resistance evaluation,Scores
B1,Poorly resistant,38
B2,Non-resistant,100
B3,Non-resistant,100

# Same assay, conditions: mesotrione 105 g ai/ha; Arabidopsis thaliana T1 plants; 16 plants
Molecule,Grade 0 (classification and statistics of the grade of pesticide damage; number of plants),Grade 1 (classification and statistics of the grade of pesticide damage; number of plants),Grade 2 (classification and statistics of the grade of pesticide damage; number of plants),Grade 3 (classification and statistics of the grade of pesticide damage; number of plants)
B1,0,14,2,0
B2,0,0,0,16
B3,0,0,0,16
